Experimental data: the DeepSol protein solubility set

Assay: soluble on expression in E. coli; label from the status in PepcDB or PDB records

Row | Sequence | soluble on expression in E. coli
1 | MLFLFVDGLGLGGALEDLFPFLLALAPTPLDATLGVEGLPQSGTGQTALLTGENAARLLGHHQGPFPSPRLRPLLAQGLYAWAKGKGLRVLHANGYRPDYLRRATEGKRLLLSAFAQAARLAGIPLLPLGHPLALLPGFWEDPYGAGAKAAALARAFDLVVLEYWALDLAAHRHPESLPDRFRELTLFLQGFLAEGGVLLLASDHGNAEEPWHPRHTLNPVPLVYTEEAPPPPEDLTGVFPWLRTIITSKTNKSDRNT | soluble
2 | MARHSALAQAERLEPLLTTNPLHGATLERIVTHLHDEYGWEELARRVPVKCFQNEPSVGSSLKFLRKTPWAREQVEAEYVKLARREDANPLIDALKRGQALDFTGVSQTKLHAALGWMLRHVEQNAQNLQLYFLPTLAHIQDVNFWPDAEPLPLLNLAIDRSALGAGDYEPGVVAELLRRGADANDPRFWPPLLHTVDVEGQAYQSKTRAPRTDLFDLLLAHGADPALEDSRGNTARSMAEAYGLRAVINKLNTLPAVSGSLEHHHHHH | soluble
3 | MAHHHHHHMSLVASQEGLTDLVPCNDQCGGDYTLYTFGQSEKEVTITAPLAPGTRGKSLRVDIKVRHLQIEVPGKGTILAGELYKPINVDDSTWCIQDGKELVVVLTKTNIEYEEWWPHVVIGERQIDLKTLKPPSIRFSDLDGGAQATVAKMMHEQHEKRTDPAFTNA | soluble
4 | MTYFIDVPTMSDLVHDIGVAPFIGELAAALRDDFKRWQAFDKSARVASHSEVGVIELMPVADKSRYAFKYVNGHPANTARNLHTVMAFGVLADVDSGYPVLLSELTIATALRTAATSLMAAQALARPNARKMALIGNGAQSEFQALAFHKHLGIEEIVAYDTDPLATAKLIANLKEYSGLTIRRASSVAEAVKGVDIITTVTADKAYATIITPDMLEPGMHLNAVGGDCPGKTELHADVLRNARVFVEYEPQTRIEGEIQQLPADFPVVDLWRVLRGETEGRQSDSQVTVFDSVGFALEDYTVLRYVLQQAEKRGMGTKIDLVPWVEDDPKDLFSHTRGRAGKRRIRRVA | soluble
5 | RDIKDLIVALDIGTSKVVAVVAEILPEGRFEVLGLGQHESRGMRKGVVVNIETTVNSIQRALEEAELMADCKIRDVYAGIAGSHIRSFNSSGMVAVKDKEVTATDVARVIETAKAVNIPTDQ | not soluble
6 | KGEITYLNQAWASITGFSISECMGTMYNDYFIKEKHVADHINTQIQNKASSGMFTAKYVTKNGTIFWGEVHYKLYYDRDDQFTGSLGTMSD | not soluble
7 | MTKEAVLYKKEDGRIRCLACARKCLIGEGQVGFCGVRSVRNGKLYLDVYGKIAAAHIDPIEKKPLVHFNPGSKVFSFSTYGCNWMCMYCQNYDISQRRKAEGVELSPEEIVELAMGYDVDGMTYTYNEPAIFSEFAHDVGIVAKRYGLFNTMVSNGYWTPNLVDYVKDFLDAVTIDFKGNGEQKFLRRYTGATSAEPIIETASELSKKGIHVEITDLIIPQIGDDLQAAKQLLTKLYDQLGADIPIHFLRFHPDYKLNYIPWTPVETLERHYKLAKELGFKFVYVGNVPGHPYENTYCPNCGNLVIRRYSFDILEWHLTEDMRCKFCGYKLPIRGKLSRHAFKERFEPVFI | not soluble
8 | MSWKIIEKYRRILAQEEGNSPKRRGGKLTVCLVYPNRYGVAMSNLGFQAVHALLNAESDILCERAFLPDPDDLREYRRSGARLLSLESQEPLSSFDIIAFSVSFESDYLNIPVIFDLAGIPALAAERTGSHPLVMGGGAALFLNPEPVADFLDLIVVGEGEAILPTFLDHIRADGIGDRAMFLAGVAGLPGIYVPSLYATEYDGARLVSREAKDGAPEQVKRIWMAEPDGRATVSEILTPGTEFSDMYLVEVSRGCGRGCRFCAAGFIYHPYRQRSLDAVKAAVAEGLSHRRKIGLVGAAVSDFREIGELCRHILAEGGTVSVSSLRIDRLDEGMIEVLKASGHKTVALAPEGGSQRIRDLINKNLTEEQILAACDLLIGHDILNLKLYFIIGLPTETMDDLEEMALLVEKIRKRVIAAARKNKRLGEIILSVNPFVPKPFTPFQWCGMEDTPSLEKKLKYLQQTVGRLSNVRLIAESPKDAWLQALLSRGDRRLSGFLLRAAELGNWKRAAREFPVDTDFLVHRTIPLDEMLPWDVIASADAERLRREYLKATPPRLEHHHHHH | not soluble
9 | MSLAKLDETLTMLKDLTDAKGIPGNEREVRQVMKSYIEPFADEVTTDRLGSLIAKKTGAENGPKIMIAGHLDEVGFMVTQITDKGFIRFQTVGGWWAQVMLAQRVTIVTKKGEITGVIGSKPPHILSPEARKKSVEIKDMFIDIGASSREEALEWGVLPGDMIVPHFEFTVMNNEKFLLAKAWDNRIGCAIAIDVLRNLQNTDHPNIVYGVGTVQEEVGLRGAKTAAHTIQPDIAFGVDVGIAGDTPGISEKEAQSKMGKGPQIIVYDASMVSHKGLRDAVVATAEEAGIPYQFDAIAGGGTDSGAIHLTANGVPALSITIATRYIHTHAAMLHRDDYENAVKLITEVIKKLDRKTVDEITYQEGGSHHHHHH | soluble
10 | MGHHHHHHSHMMPAERRLPLSFVLDVLEGRAQHPGVLYVQKQCSNLPSELPQLLPDLESHVPWASEALGKMPDAVNFWLGEAAAVTSLHKDHYENLYCVVSGEKHFLFHPPSDRPFIPYELYTPGTYQPSDRPFIPYELYTPATYQLTEEGTFKVVDEEAMEKVPWIPLDPLAPDLARYPSYSQAQALRCMVRAGEMLYLPALWFHHVQQSQGCIAVNFWYDMEYDLKYSYFQLLDSLTKASGLD | soluble
11 | MTEMIRPRVKYVIGPDGSPLTIADLPPANTRRWVIRRKAEVVAAVRGGLLSLEEACERYTLTVEEFLSWQSSISDHGLAGLRTTRIQQYRHAAALEHHHHHH | soluble
12 | MPEITESERAYHLRKMKTRMQRVDVTGDGFISREDYELIAVRIAKIAKLSAEKAEETRQEFLRVADQLGLAPGVRISVEEAAVNATDSLLKMKGEEKAMAVIQSLIMYDCIDTDKDGYVSLPEFKAFLQAVGPDLTDDKAITCFNTLDFNKNGQISRDEFLVTVNDFLFGLEETALANAFYGDLVD | soluble
13 | MEHHHHHHATNLRGVMAALLTPFDQQQALDKASLRRLVQFNIQQGIDGLYVGGSTGEAFVQSLSEREQVLEIVAEEAKGKIKLIAHVGCVSTAESQQLAASAKRYGFDAVSAVTPFYYPFSFEEHCDHYRAIIDSADGLPMVVYNIPALSGVKLTLDQINTLVTLPGVGALKQTSGDLYQMEQIRREHPDLVLYNGYDNIFASGLLAGADGGIGSTYNIMGWRYQGIVKALKEGDIQTAQKLQTECNKVIDLLIKTGVFRGLKTVLHYMDVVSVPLCRKPFGPVDEKYLPELKALAQQLMQER | soluble
14 | MSLVWKLLGGSKKEFVTPYASLLPDGHTLKEYSDSLVKKTIKAKELGFKAAKLEICIKGPYSHNNLQIEDDREFANMVKLCRKAVGNDMILMADVAYAWPDWKTALIALNMVENEDLFFIETPLPIEDLKGSKKLAEHSKTRIATGEMLQTRFECFETIEKGGIDVIQPDVGRVGGLTEAKRVCDYAEDNGILVVPHCWKSAIGIAASAHLSATTNMCPYIEFLPKELAESQLRKDLVLKELDVVDGQIPLPQQPGLGIEINDDKLKEYGVEGHHHHHH | not soluble
15 | METETYTNSSHLGRKIERIRRLRGMTQTDLGELLGVTKQAISKMEQAEKIDDEKLKQVATALGVTEEGLKKFTEETVLYYTSNFYENCHVSASNIGPITHVENLNHFSMDQAVKLFEELLKIERDKYDKGKEESAK | not soluble
16 | MTPYAFTDPRKSELYVVEGDSAGGSAKSGRDSMFQAILPLRGKIINVEKARIDRVLKNTEVQAIITALGTGIHDEFDIGKLRYHKIVLMADADVDGQHISTLLLTLLFRFMRPLIENGHVFLAQPPLYKLKWQRSDPEFAYSDRERDGLLEAGLKAGKKINKEDGIQRYKGLGEMDAKELWETTMDPSVRVLRQVTLDDAAAADELFSILMGEDVDARRSFITRNAKDVRFLDVKLAAALEHHHHHH | soluble
17 | MAHHHHHHMQLPRKRGTQRRRAHRRNWRDCTSLCTMRGGAMRWNFRTAWSERKQGTGMGVHEGKPEQSWTYKKADDAIKKNDAVQQFGAAPPVLMVLASDKGWPYSWNTIQDLPKDFFVNCEVDRAWQIVKGDLTAWFSPHGGTDFTPKRRVLIGTPGIGKSVAAGSYLLY | not soluble
18 | MGSDKIHHHHHHMIISWNTTNKCNMHCEHCYRDSGKGAEGELSTTEGKKLIDEIAKAGFKIMIFSGGEPLLRDDIYELIGYASKIGLRCVIGSNGTLITLEAAQKLKKAGVMRAGISLDSLKAKKHDSFRNYSGAWENTIIGIENLKKAGISFQINTTVMKWNKDEVKDITDFGANLGASAHHVFFLVPTGRGAELQEQILSKNDYENLIKEIMLKQAHANIEIKPTCAPQFVRIAEQNNIKTRFKKGCLAGIKYCIISPTGNVQPCAYLNFSAGNVKQKSFGEIWRESPILKKLRTMEYGEKCGTCKYKNKCGGCRARAAFYNNGDIMASDTWCIYNEYEENKING | not soluble
19 | MRNIIFTGKGGVGKTSVAAATALKAADMGYKTLIMSTDPAHSLGDSLDIELGPSPVKVAENLWGQEVSVFGDLNLNWDVVREHFAHLMASRGIEGVYAEEMGVLPGMEELFSLSYIKRYNEEQKDFDLLVVDCAPTGETLRLLSLPETFGWFIKMIRNIEKYMVKPVIRPLSKKVKKLDDFVAPEEVYEKVDNLFSSTEGIIDLLADGTKTTMRLVMNPEKMVIKESMRALTYLNLYGITVDRITINRVMPDQSPDPYFQQWRNIQQKYIDQINSAFAPIPVAEVPLFNNEVVGLEMLRKVGEKVYGDENPLDIF | not soluble
20 | IDFRTNKSKDAVIVVELASPAAIVDVKRVQEGLSIDLMNTSVKDEQLYLLDVKDFATVVESVEVFRDTSTTRLVAYIDEEYTHDYRLTGRYLEITVSKLKPNEKV | not soluble
21 | DLRFFGDFVLEGDARLGEVAALYGLKLDGIDPGMPLSQFIVQKNRGEPVVGDQIEWNGTIWTVAVMDGNKIQKVGVKFPEGTRPGPGLFL | not soluble
22 | MPSVESFELDHNAVVAPYVRHCGVHKVGTDGVVNKFDIRFCQPNKQAMKPDTIHTLEHLLAFTIRSHAEKYDHFDIIDISPMGCQTGYYLVVSGETTSAEIVDLLEDTMKEAVEITEIPAANEKQCGQAKLHDLEGAKRLMRFWLSQDKEELLKVFG | soluble
23 | MSYSIDNPGGGDCGFYALAIGLISIIQNEYKLHGKSKTYDRWKQVENIYGVRLQDILNIDLTKLHYSPYTYKSELLFLLQMSLRNIAVIVNKEDLVKRIIEEGRSKDQTKIEGSNAYCKFMELVQLYLYRRGSLERISQFNELALSPEIVQTARDIARMLRPILRNQPFHQAQKIENAFVKEVLLNDVLSGNTINSNSIILKSLEKIKEQGRWATHDDLKEIAELLKINLNVVGQPNGKPIPEYPTVTLKNLSNTHWITQVESLQGPRQYSTPSKRAFGYETLSDRAVPLKEEQTLDRAFRTETQSERTRRYNQHFETLFDTLSPYGFFPHVQSKRNVHVFGKAQTGLESDEALAAQLQEAELRRILY | not soluble
24 | MAQSKILLYYKFTPIADPKAMMLWQRDMCELLGLKGRILISEHGINGTVGGDMDACKRYVRKMREYPGFRGTEFKWSDGGAEDFPKLSVKVRDEIVAFGAPGELKVDEKGVIGGGVHLKPEEVNKLVEERGDDVVFFDGRNAMEAQIGKFKNAVVPDVRTTHDFIRELESGKYDWMKDKPVVSYCTGGIRCEILSSLMKNRGFKEIYQIDGGIVRYGEKYGNDGLWEGSLYVFDRRMHMEFGNGVQDPGFIQLGHCVQCGAPTNKFEHCINEDECRELVLMCPDCYENPATRNCGREHCKEVAAEAAAAAAV | not soluble
